In publication doi:10.1101/236612 (bioRxiv, 2017):

What was measured:
Test in all cases: co-IP
[1] = biological target: T1, GFP-tagged TOMM20 (UniProt Q15388 1-145)
T1 sequence: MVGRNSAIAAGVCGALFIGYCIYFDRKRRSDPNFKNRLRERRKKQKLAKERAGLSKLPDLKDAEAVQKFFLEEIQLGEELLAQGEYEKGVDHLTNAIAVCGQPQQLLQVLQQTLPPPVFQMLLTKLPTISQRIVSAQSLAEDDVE

[2] = biological target: T2, GFP-tagged Prohibitin (PHB) (UniProt P35232 1-272)
T2 sequence: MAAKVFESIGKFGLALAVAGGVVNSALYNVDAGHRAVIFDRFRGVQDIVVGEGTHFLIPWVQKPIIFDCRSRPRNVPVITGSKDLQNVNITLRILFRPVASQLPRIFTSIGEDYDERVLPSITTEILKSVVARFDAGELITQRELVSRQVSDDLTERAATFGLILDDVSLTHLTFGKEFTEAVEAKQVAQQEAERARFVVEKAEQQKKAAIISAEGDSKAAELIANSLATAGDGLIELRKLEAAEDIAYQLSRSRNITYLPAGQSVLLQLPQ

[3] = biological target: T3, GFP-tagged TOMM70 (UniProt O94826 1-608)
T3 sequence: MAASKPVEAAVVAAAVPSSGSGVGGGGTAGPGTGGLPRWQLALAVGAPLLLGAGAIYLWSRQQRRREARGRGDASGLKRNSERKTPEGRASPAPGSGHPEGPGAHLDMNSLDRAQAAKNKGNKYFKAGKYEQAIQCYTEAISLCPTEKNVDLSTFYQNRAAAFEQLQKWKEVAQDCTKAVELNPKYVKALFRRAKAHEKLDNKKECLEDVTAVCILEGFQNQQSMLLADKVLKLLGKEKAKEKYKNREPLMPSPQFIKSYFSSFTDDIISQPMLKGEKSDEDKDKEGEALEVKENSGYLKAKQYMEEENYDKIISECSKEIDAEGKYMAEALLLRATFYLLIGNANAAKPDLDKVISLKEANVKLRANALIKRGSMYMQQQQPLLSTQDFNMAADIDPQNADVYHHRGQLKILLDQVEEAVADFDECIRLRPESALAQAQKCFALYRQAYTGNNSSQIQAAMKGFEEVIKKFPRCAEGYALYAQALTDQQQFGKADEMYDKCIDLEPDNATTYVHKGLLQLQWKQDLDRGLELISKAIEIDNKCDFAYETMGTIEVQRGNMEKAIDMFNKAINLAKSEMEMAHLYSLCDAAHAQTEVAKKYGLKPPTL

Measured: fold less AURKA in the pulldown than in pulldowns of TPX2

B1: endogenous AURKA (Aurora A kinase) (enzyme)
chain: MDRSKENCISGPVKATAPVGGPKRVLVTQQFPCQNPLPVNSGQAQRVLCPSNSSQRIPLQAQKLVSSHKPVQNQKQKQLQATSVPHPVSRPLNNTQKSKQPLPSAPENNPEEELASKQKNEESKKRQWALEDFEIGRPLGKGKFGNVYLAREKQSKFILALKVLFKAQLEKAGVEHQLRREVEIQSHLRHPNILRLYGYFHDATRVYLILEYAPLGTVYRELQKLSKFDEQRTATYITELANALSYCHSKRVIHRDIKPENLLLGSAGELKIADFGWSVHAPSSRRTTLCGTLDYLPPEMIEGRMHDEKVDLWSLGVLCYEFLVGKPPFEANTYQETYKRISRVEFTFPDFVTEGARDLISRLLKHNPSQRPMLREVLEHPWITANSSKPSNCQNKESASKQS
≥ 10 fold: all assays above
